B1: TRIM43 (parent)
chain: NNSWIRKNSTMVNSEDIFLLLCLK
B2: PKD2L1 (parent)
chain: TLARCAKDILGFAVMFFIVFFAYA

Variants of: B1
Assay: protein stability index of a GFP-peptide fusion (GPS, HEK-293T) (PSI 1-6); higher = more stable
Details: c terminus: a fixed tail appended
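Also: lentivirally expressed fusions sorted by FACS into six bins by GFP to DsRed ratio, PSI derived from sequencing read proportions per bin multiplied by bin number.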

Protein stability index of substitutions, site by site:
R6: V 2.73; Y 3.78; D 3.82; F 3.74
S3: Q 3.18
N8: L 2.61
W4: T 2.88
L20: N 3
N1: I 2.27
I5: K 3.55
S14: E 2.08; T 2.17
D16: C 3.95
V12: L 3.58
K24: P 3.69
K7: L 2.55

Variants of: B2
Assay: as above
Details: c terminus: a fixed tail appended

Protein stability index: each site, then its substitutions
I18: N 1.6; H 1.92; E 2; D 3.03; Y 3.2; S 1.72; F 3.16; R 2.18; C 2.29; W 3.5; P 2.18; K 1.71; Q 1.54; G 2.09; T 1.74; A 2.54; M 1.49
F17: I 2.44; W 1.91; V 2.44; C 2.07; G 2.44; D 3.23; K 2.06; R 2.98; Q 1.98; M 1.84; Y 2.37; H 3.23; A 1.79; N 1.56; T 2.4; E 2.32; S 2.03
I9: Y 1.94; E 1.46; G 2.66; C 3.32; S 2.6; T 1.58; F 3.86; M 3.48; P 1.93; R 1.74; N 1.69; V 2.24; A 2.44; H 2.46; Q 1.84; K 1.22; W 2.43; L 1.58; D 1.64
D8: S 1.98; G 2.75; F 2.33; W 2.88; T 3.06; I 2.56; V 2.33; A 2.77; P 2.25; K 2.07; M 2.76; H 2.66; Q 1.51; Y 2.7; R 2.06; L 2.47; E 2.21; C 2.56; N 1.91
Y23: S 2.47; C 3.45; T 2.98; L 2.34; N 2.61; E 2.56; V 2.37; R 1.42; H 2.27; I 1.51; A 1.7; P 2.51; K 2.31; W 2.72; G 2.6; F 1.57
A13: P 1.65; N 2.11; S 1.75; G 2.06; D 1.84; Q 2.25; L 2.63; C 2.25; K 3.14; H 2.15; Y 2.65; F 2.92; R 3.17; E 2.82; I 1.52
V14: L 3.47; A 2.06; I 1.86; S 2.61; K 3.08; T 2.07; P 1.82; F 2.3; C 2.86; G 1.9; D 2.59; Q 2.46; H 2.85; N 3.15; R 2.82; E 2.48; Y 3.2; M 1.61
K7: P 2.84; H 3.13; T 2.83; A 2.16; D 3.17; V 4.08; F 2.78; W 2.57; E 2.36; M 2.47; Q 3.71; Y 3.79; G 2.45; R 2.29; I 2.36
F20: W 1.56; K 2.48; C 2.57; G 2.03; E 2.77; R 2.42; D 1.83; P 3.48; S 2.46; T 1.92; A 1.99; I 2.7; V 3.23; Q 3.46; H 2.07; Y 2.46
M15: K 2.58; W 2.5; G 2.48; N 1.32; L 1.25; D 2.89; S 1.33; A 2.27; F 2.54; R 3.16; E 2.61; P 2.62; Q 3.41; I 3.37; V 1.88; H 2.17; Y 1.72; C 2.86
F16: Q 4.27; P 1.96; N 2.6; L 3.69; Y 1.88; S 1.82; T 2.41; K 4.35; V 2.07; A 2.21; G 2.71; W 3.32; M 2.98; I 1.57; E 3.1; H 2.28; C 1.79; R 3.37
A22: T 1.83; F 1.98; I 1.91; N 2.92; Y 2.58; L 2.14; K 1.67; Q 2.21; G 4.34; S 3.22; W 2.69; H 2.35; C 4.15; M 1.48; P 4.08; V 1.42; R 1.95; E 2.82
G11: W 1.06; C 2.06; F 1.22; I 2.79; R 2.72; Y 2.38; E 3.51; P 1.81; M 1.48; N 2.4; Q 2.35; S 3.06; D 2.28; K 3.33; L 1.73; H 3.32; A 1.41; V 1.74; T 3.47
F12: Y 1.89; R 2.02; D 2.24; N 2.55; T 1.89; Q 2.1; V 2.42; H 1.93; C 1.87; I 1.49; L 3.16; G 2.56; K 2.33; S 1.89; A 1.42; E 1.44; W 3.56; P 2.87
F21: S 2.01; M 2.54; T 2.88; Q 1.38; N 2.78; W 2.46; I 3.32; A 2.11; R 2.16; L 1.94; G 2.08; C 3.17; Y 3.96; K 2.1; D 3.21; H 2.98
A6: V 2.95; M 2.09; N 3.44; W 2.75; K 3.02; Y 3.06; T 3; L 4.57; I 2.69; P 3.24
A24: K 2.06; Q 2.42; V 1.63; D 2.9; P 3.52; Y 3.62; N 2.33; C 1.23; M 1.92; L 3.01; R 1.45; I 1.68; F 2.65; W 3.47
L10: G 2.03; S 1.84; T 3.28; V 2.92; N 1.82; Q 3.08; A 2.38; W 2.49; F 1.91; R 2.54; P 3.1; M 2.61; C 2.79; Y 2.38; H 1.83; I 2.42
V19: E 2.11; S 2.36; H 3.19; N 2.39; C 2.32; M 2.58; R 2.36; F 2.13; Q 3.48; L 3.88; I 2.9; D 3.22; W 3; P 2.99; A 2.61; Y 2.5; G 2.34; T 2.69; K 2.34
